From patent US20130058952A1 (UNIVERSIT T DUISBERG ESSEN, published 2013)
Where a chain is given by its changes, count along the chain named.

B1: humanized mAb h2c-V2 (antibody, V domains shown)
VH: QVTLKESGPALVKPTQTLTLTCTFSGFSLSTSGMSVGWIRQPPGKALEWLAHIWWNNDKYYKPALKSRLTISKDTSKKQVVLTMTNMDPVDTATYYCARIYYGYRPYAMDYWGQGTLVTVSS
VL: DIVMTQTPLSLPVTPGEPASISCRSSQSIVHSNGNTYLEWYLQKPGQSPQLLIYKVSNRFSGVPDRFSGSGSGTDFTLKISRVEAEDVGVYYCFQGSHVPWSFGQGTKVEIKR
notes: also called hu2c-V2
B2: 2c-Fab (Fab, V domains shown)
VH: QVTLKESGPGILLPSQTLSLTCSFSGFSLSTSGMSVGWIRQPSGKGLEWLGHIWWNNDKYYKPALKSRLTISKDTSNKQVFLKIASVVTADTATYYCARIYYGYRPYAMDYWGQGTSVTVSS
VL: B1 VL with I2V, V3L, T14S, P15L, E17D, P18Q, Q50K, V88L, Q105G, V109L
notes: also called Fab-fragment of mAb 2c; monovalent 2c-Fab fragment
B3: 2c-F(ab′)2 (other)
VH: B2 VH
VL: B1 VL with I2V, V3L, T14S, P15L, E17D, P18Q, Q50K, V88L, Q105G, V109L
notes: also called F(ab′)-2-fragment; F(ab)2-fragment of mAb 2c
B4: murine monoclonal antibody (mAb) 2c (antibody, V domains shown)
VH: B2 VH
VL: B1 VL with I2V, V3L, T14S, P15L, E17D, P18Q, Q50K, V88L, Q105G, V109L
notes: also called 2c IgG; 2c-IgG
B5: humanized mAb h2c-V1 (antibody, V domains shown)
VH: B1 VH with K78N
VL: B1 VL
notes: also called hu2c-V1; mAb hu2c-V1
B6: humanized mAb h2c-V3 (antibody, V domains shown)
VH: B1 VH with V81F
VL: B1 VL
notes: also called hu2c-V3
B7: humanized mAb h2c-V4 (antibody, V domains shown)
VH: B1 VH with V81F
VL: B1 VL with I2V
notes: also called hu2c-V4

Key:
[1] = target: T1, glycoprotein B (gB) of HSV-1 strain F on infected Vero cells (Herpes simplex virus type 1, strain F, UniProt P06436 30-903); test: flow cytometry, equilibrium binding to gB on HSV-1 F infected Vero cells, KD from nonlinear regression fit
T1 construct: whole, on cells; also called HSV-1 F; Wild-type strain F

[2] = target: T1, glycoprotein B (gB) of HSV-1 strain F …; test: flow cytometry on HSV-1 F infected Vero cells
[3] = target: T1, glycoprotein B (gB) of HSV-1 strain F …; test: flow cytometry on HSV-infected Vero cells (FIG. 5)
[4] = target: T1, glycoprotein B (gB) of HSV-1 strain F …; test: cell-based or functional assay
[5] = target: T2, glycoprotein B (gB) of HSV-2 strain G on infected Vero cells (Herpes simplex virus type 2, strain G); test: flow cytometry, equilibrium binding curves on HSV-2 G infected Vero cells
T2 construct: whole, on cells; also called HSV-2 G

[6] = target: T2, glycoprotein B (gB) of HSV-2 strain G …; test: flow cytometry on HSV-2 G infected Vero cells
[7] = target: designed 12-mer peptide PFYGYRE-G-FEDF; test: cellulose-bound peptides probed with MAb 2c, chemiluminescence
[8] = target: T3, truncated HSV-1 glycoprotein B gB(1-130) (Herpes simplex virus type 1, strain 17+, UniProt P10211 31-130); test: indirect immunofluorescence on transfected COS-1 cells
T3 construct: range 31-130

[9] = target: T4, truncated HSV-1 glycoprotein B gB(436-642) (Herpes simplex virus type 1, strain 17+, UniProt P10211 436-642); test: as above
T4 construct: range 436-642

[10] = target: T5, truncated HSV-1 glycoprotein B gB(1-223) (Herpes simplex virus type 1, strain 17+, UniProt P10211 31-223); test: as above
T5 construct: range 31-223

[11] = target: T6, duotope 179YSQFMG184-βA-300FYGYRE305; test: peptide and duotope microarray on glass slides, mAb 2c, fluorescence laser scan, signal intensity (LU)
T6 construct: also called YSQFMG-βA-FYGYRE

[12] = target: T7, duotope 186FED188-βA-βA-300FYGYRE305; test: as above
T7 construct: also called FED-βA-βA-FYGYRE

[13] = target: T1, glycoprotein B (gB) of HSV-1 strain F …; test: cell-based or functional assay; remark: listed apart in the source
[14] = target: T1, glycoprotein B (gB) of HSV-1 strain F …; test: flow cytometry competition on HSV-1 infected Vero cells against 100 nM mAb 2c

Binder | Kd [1] | EC50 (read off the curve) [2] | concentration [nM] required for 50% neutralization of 100 TCID50 [4] | concentration [nM] required for 100% neutralization of 100 TCID50 [4] | other results
B1 | 21.4 nM | ~20 nM | 5.1 nM | 15.6 nM | fold lower affinity in comparison to mAb 2c [3]: 2 fold
B2 |  |  |  |  | Kd [5]: 17.7 nM; EC50 (read off the curve) [6]: ~20 nM
B3 |  |  |  |  | Kd [5]: 8.8 nM; EC50 (read off the curve) [6]: ~8 nM
B4 |  |  |  |  | binding result [7]: binds; binding result [8]: no binding; binding result [9]: no binding; binding result [10]: no binding; binding result [11]: binds; binding result [12]: binds
B5 | 12.8 nM | ~10 nM | 3.7 nM | 7.8 nM | inhibition of HSV-1 F cell-to-cell spread in Vero cell monolayers [13]: 500 nM
B6 | 11.4 nM | ~10 nM | 3.3 nM | 7.8 nM | IC50 (read off the curve) [14]: ~100 nM
B7 | 13.7 nM | ~10 nM | 3.7 nM | 7.8 nM | 
